Biological target: human wild type c-RET expressed in 3T3 fibroblasts (human) (UniProt P07949)
Experiment: cell-based or functional assay

Sequence of ^125I-GDNF (human GDNF from PeproTech EC Ltd. or rat GDNF from C. F. Ibanez) (ligand) (P39905 78-211): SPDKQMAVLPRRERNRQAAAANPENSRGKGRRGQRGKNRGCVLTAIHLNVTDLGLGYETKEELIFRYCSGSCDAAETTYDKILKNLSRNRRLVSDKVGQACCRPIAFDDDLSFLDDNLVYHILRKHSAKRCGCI
Sequence of human wild type c-RET expressed in 3T3 fibroblasts (human) (P07949 29-1114): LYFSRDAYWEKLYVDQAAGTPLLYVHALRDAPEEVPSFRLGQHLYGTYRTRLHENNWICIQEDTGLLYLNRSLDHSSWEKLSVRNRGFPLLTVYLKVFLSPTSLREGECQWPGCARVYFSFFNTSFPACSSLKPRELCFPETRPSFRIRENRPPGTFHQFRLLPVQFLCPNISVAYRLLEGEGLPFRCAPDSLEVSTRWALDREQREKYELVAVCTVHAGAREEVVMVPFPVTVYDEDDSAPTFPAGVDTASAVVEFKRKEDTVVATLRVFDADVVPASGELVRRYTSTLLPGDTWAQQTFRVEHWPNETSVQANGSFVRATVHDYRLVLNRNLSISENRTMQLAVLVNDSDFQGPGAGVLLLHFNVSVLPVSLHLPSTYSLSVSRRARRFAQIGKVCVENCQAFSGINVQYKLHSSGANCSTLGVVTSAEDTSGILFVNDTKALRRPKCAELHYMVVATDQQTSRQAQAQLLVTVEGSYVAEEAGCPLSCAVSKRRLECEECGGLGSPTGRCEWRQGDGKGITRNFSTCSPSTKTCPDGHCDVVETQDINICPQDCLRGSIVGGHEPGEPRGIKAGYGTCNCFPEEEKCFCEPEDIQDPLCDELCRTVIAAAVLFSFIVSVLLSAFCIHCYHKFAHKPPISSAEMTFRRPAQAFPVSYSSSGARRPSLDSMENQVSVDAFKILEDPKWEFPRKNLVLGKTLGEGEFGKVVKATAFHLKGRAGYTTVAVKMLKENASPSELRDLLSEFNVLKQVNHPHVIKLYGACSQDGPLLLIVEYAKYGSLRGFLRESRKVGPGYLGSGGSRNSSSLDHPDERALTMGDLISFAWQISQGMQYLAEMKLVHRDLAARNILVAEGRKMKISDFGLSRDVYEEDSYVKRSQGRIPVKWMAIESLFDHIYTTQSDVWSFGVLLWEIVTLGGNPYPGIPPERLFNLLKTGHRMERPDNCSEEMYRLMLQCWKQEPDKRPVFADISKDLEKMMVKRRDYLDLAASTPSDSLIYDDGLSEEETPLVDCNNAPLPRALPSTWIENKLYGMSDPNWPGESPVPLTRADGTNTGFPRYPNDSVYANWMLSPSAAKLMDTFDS

Work on “^125I-GDNF (human GDNF from PeproTech EC Ltd. or rat GDNF from C. F. Ibanez) (ligand)” yielded a tyrosine phosphorylation of c-RET in c-ret-3T3 cells, time course at 50 ng/ml GDNF of 5 min and a tyrosine phosphorylation of the 160 kD c-RET isoform in c-ret-3T3 cells, dose-response, 5 min greater than 25 ng/mL.
